# B1: GvpF fused to NGFP or CGFP (split-GFP) [Halobacterium salinarum PHH1] / GvpA fused to NGFP or CGFP (split-GFP) [Halobacterium salinarum PHH1] (parent complex)
# chain 1: MTENLYTYGIIEQEDLELDVEGVAGAEQVYTVDYKTLSAVVSDIDTTDPERTDEDVEAHNNVLQEVLKHEEERTVVPMSFGMAFKSARTLKGVLRGARRALRSTLNDIEGTVELGVKILGPGDDTVPREEIQENVTDQLADLSINETENDLFTDRLIINKSYLVDFEKRDAFDSAIDDVEAEYDELTIQYTGPWPPYNFVDIHIGAEQQQGGR
# chain 2: MAQPDSSGLAEVLDRVLDKGVVVDVWARVSLVGIEILTVEARVVAASVDTFLHYAEEIAKIEQAELTAGAEAAPEA
# Variants of: B1
# Test: split-GFP; in Hfx. volcanii; FN fusion protein used as interaction partner; two biological and three technical replicates; parent: 20; read off a plot
row,Variant,response
1,chain 2 V29D,~19 relative fluorescence
2,chain 2 K19D,~5.4 relative fluorescence
3,chain 2 K19A,~9.8 relative fluorescence
4,chain 2 A46Y,~11 relative fluorescence
5,chain 2 T38A,~13 relative fluorescence
6,chain 2 D5A,~10 relative fluorescence
7,chain 2 H53A,~12 relative fluorescence
8,chain 2 A41E,~19 relative fluorescence
9,chain 2 D14A,~13 relative fluorescence
10,chain 2 L17A,~13 relative fluorescence
11,chain 2 L52E,~19 relative fluorescence
12,chain 2 G33V,~5.6 relative fluorescence
13,chain 2 Y54A,~14 relative fluorescence
14,chain 2 R15A,~5.3 relative fluorescence
15,chain 2 A27E,~5.2 relative fluorescence
16,chain 2 E65A,~13 relative fluorescence
17,chain 2 A64Y,~14 relative fluorescence
18,chain 2 W26A,~19 relative fluorescence
19,chain 2 R42A,~12 relative fluorescence
20,chain 2 R42E,~12 relative fluorescence
21,chain 2 A45Y,~9 relative fluorescence
22,chain 2 E57A,~12 relative fluorescence
23,chain 2 I61A,~16 relative fluorescence
24,chain 2 E11A,~11 relative fluorescence

# Source: article PMC7688916 (2020)
